Laboratory results reported in patent publication US12012599B2, “Compositions and methods for modulating left-right differentiation factor (LEFTY) and bone morphogenic factor (BMP)” (CZ Biohub SF LLC, priority 2018, dated 2024).
Read-outs that look alike come from different tables or passages of the source.

Columns and labels:
BMPR2 [1] = experiment: LEFTY1 and BMPR2 immunoprecipitation assays; type: binding; details: both directions
Description: (§1) FIGS. 5A-5H. LEFTY1 inhibits pSMAD2 and pSMAD5 in the basal mammary epithelial cells. […] KRT8 was used to stain the luminal cells and SMA for basal cells (Magnification 400×). […] Gapdh was used as a housekeeping gene. […] Ten different fields were counted per condition (n=3). Data are represented as median±S.D. Statistical analysis, (a and b) Student's T-test, * p<0.05; (h) One-way ANOVA with Dunnet's adjustment, ****p<0.0001.
(§2) FIGS. 7A-7E. LEFTY1 interaction with BMPR2 inhibits the phosphorylation of SMAD5. […] Ten different fields were counted per condition (n=3). […] 48 hours after transfection, cells were washed and incubated with different concentrations of BMP7 (from 0-800 ng/ml) for 16 hours prior to collection of the cells. […] 48 hours after transfection, cells were washed and incubated with different concentrations of LEFTY1 (from 0-200 ng/ml) for 16 hours prior to collection of the cells. […] 48 hours after transfection, cells were washed and incubated with different concentrations of BMP7 and LEFTY1 at the indicated concentrations for 16 hours prior to collection of the cells. Data are represented as median±S.D. Statistical analysis, one-way ANOVA with Dunnet's adjustment, *p<0.05; **p<0.01; ****p<0.0001.
Since BMPR2 is upstream of pSMAD1/5/8, we reasoned that BMPR2 could serve as a common BMP Type II receptor that mediates the BMP7/LEFTY1 axis. […]

BMPR2 [2] = experiment: In situ target-mediated (proximity) ligation assay, BMPR2; type: binding
Description: as §1
(§3) FIGS. 5I-5J: LEFTY1 preferentially interacts with BMPR2. […] BMP7-BMPR2 interaction was used as a positive control, and mouse and rabbit IgGs were used as technical negative controls. The interaction of LEFTY with Wnt receptor LRP6 was analyzed as a biological negative control. […] Data are represented as median±S.D. Statistical analysis, one-way ANOVA post-hoc Tukey multiple comparison, ****p<0.0001, ***p<0.001; unless stated analysis is non-significant with p>0.05.
Since BMPR2 is upstream of pSMAD1/5/8, we reasoned that BMPR2 could serve as a common BMP Type II receptor that mediates the BMP7/LEFTY1 axis. […] The interaction between BMP7 and BMPR2 was used as a positive control (p<0.0001) (FIG. 5G-5H and FIG. 7B).
Next, we assessed the interaction of LEFTY with different type I and type II TGF-β receptors. […] We also analyzed the interaction of LEFTY with Wnt receptor LRP6 as a biological negative control. […]

ACVR2B = experiment: Proximity ligation assay with other TGF-β receptors; type: binding
Method: as §3
Next, we assessed the interaction of LEFTY with different type I and type II TGF-β receptors. BMP7-BMPR2 interaction was used as a positive control, and mouse and rabbit IgGs were used as technical negative controls. We also analyzed the interaction of LEFTY with Wnt receptor LRP6 as a biological negative control.

pSMAD5 activation = experiment: pGL3 BRE-luciferase reporter in 3T3-L1 fibroblasts; type: cell-based; details: 16 hours
Method: as §2
FIGS. 7F-7I: pSMAD5 activation in the presence of LEFTY1, BMP2 and BMP4. […] 48 hours after transfection, cells were washed and incubated with different concentrations of BMP2 (from 0-800 ng/ml) for 16 hours prior to collection of the cells. […] 48 hours after transfection, cells were washed and incubated with different concentrations of BMP2 and LEFTY1 for 16 hours prior to collection of the cells. FIG. 7H and FIG. 7I show 3T3-L1 fibroblasts transfected with pGL3 BRE-luciferase plasmid. […]
We also evaluated whether LEFTY1 could inhibit pSMAD5 activation induced by other BMPs. […]

binding of LEFTY1 to BMPR2 (pull-down) (BMPR2 [1]): able to detect the binding
interaction with other TGF-β receptors, ACVR2B (ACVR2B): also interacted
inhibition of pSMAD5 activation induced by BMP2 or BMP4 (pSMAD5 activation): less of an inhibitory effect
B1: LEFTY1: left-right determination factor 1, secreted TGF-β superfamily protein; generic LEFTY may mean LEFTY1 or LEFTY2 (protein, UniProt O75610 77-366, looked up)
Left-right determination …: RFSQSFREVAGRFLALEASTHLLVFGMEQRLPPNSELVQAVLRLFQEPVPKAALHRHGRLSPRSARARVTVEWLRVRDDGSNRTSLIDSRLVSVHESGWKAFDVTEAVNFWQQLSRPRQPLLLQVSVQREHLGPLASGAHKLVRFASQGAPAGLGEPQLELHTLDLGDYGAQGDCDPEAPMTEGTRCCRQEMYIDLQGMKWAENWVLEPPGFLAYECVGTCRQPPEALAFKWPFLGPRQCIASETDSLPMIVSIKEGGRTRPQVVSLPNMRVQKCSCASDGALVPRRLQP
protein interaction with BMPR2 (BMPR2 [2]): significant protein interaction
protein interaction with BMPR2 (BMPR2 [2]; listed as LEFTY): interacted preferentially
inhibition of BMP7-mediated pSMAD5 activation (pSMAD5 activation): inhibit BMP7-mediated pSMAD5 activation in a dose-dependent fashion
